{
  "source": "patent US20210115458",
  "tested_on": "T1, JUL1 (bead-immobilized for Kd assay) (Arabidopsis thaliana)",
  "T1 sequence": "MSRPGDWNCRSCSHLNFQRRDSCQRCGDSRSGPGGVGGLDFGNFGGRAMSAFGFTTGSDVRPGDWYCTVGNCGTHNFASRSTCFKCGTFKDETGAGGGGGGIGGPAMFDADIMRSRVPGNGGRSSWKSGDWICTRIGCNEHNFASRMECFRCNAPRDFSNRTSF",
  "conditions": "FAM-RNA bead fluorescence assay",
  "note": "Read-outs that look alike come from different tables or passages of the source.",
  "data": [
    {"substance": "SMXL5 5' UTR G-quadruplex-forming motif", "values": [
      {"measurement": "Kd", "setting": "with potassium (folded G4)", "value": 230, "unit": "nM"},
      {"measurement": "Kd", "setting": "without potassium", "value": 130, "unit": "nM"}
    ]}
  ]
}
